The record followed here is paper PMC8115264, “Mitofusin-2 stabilizes adherens junctions and suppresses endothelial inflammation via modulation of β-catenin signaling” (Nature Communications, 2021).

This assay deals with T1, GFP-Mfn2 (UniProt O95140 1-757).
T1 construct: The construct was generated in the authors' laboratory; also called lentiviral GFP-Mfn2; GFP-tagged Mfn2; source: HLMVECs, lentiviral expression (pWPXL), in lysate
T1 sequence (looked up): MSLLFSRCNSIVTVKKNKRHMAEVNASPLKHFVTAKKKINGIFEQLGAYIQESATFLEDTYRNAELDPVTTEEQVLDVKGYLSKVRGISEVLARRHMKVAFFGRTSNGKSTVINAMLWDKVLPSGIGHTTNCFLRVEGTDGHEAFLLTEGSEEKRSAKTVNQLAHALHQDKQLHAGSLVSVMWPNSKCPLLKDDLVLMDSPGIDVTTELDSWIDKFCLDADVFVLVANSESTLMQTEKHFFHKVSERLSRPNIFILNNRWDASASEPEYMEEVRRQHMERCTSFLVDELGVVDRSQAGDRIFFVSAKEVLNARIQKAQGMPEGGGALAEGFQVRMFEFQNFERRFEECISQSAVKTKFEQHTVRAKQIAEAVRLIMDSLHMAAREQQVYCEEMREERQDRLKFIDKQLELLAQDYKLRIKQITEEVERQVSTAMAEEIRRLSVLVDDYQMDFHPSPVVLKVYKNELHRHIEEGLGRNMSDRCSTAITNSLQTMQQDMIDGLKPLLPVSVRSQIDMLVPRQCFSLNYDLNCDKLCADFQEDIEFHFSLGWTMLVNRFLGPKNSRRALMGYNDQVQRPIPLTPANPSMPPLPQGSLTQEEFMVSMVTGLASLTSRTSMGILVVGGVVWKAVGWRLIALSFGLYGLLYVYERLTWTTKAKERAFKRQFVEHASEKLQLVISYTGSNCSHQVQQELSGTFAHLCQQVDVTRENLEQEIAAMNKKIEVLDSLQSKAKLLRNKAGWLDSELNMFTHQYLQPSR
The assay can be described thus: co-IP; HLMVECs expressing GFP or GFP-Mfn2, with or without TNFα (10 ng/mL) for 6 h; GFP-Mfn2 immunoprecipitated with GFP-trap magnetic agarose, Western blot for β-catenin and Mfn2. To be noted: partners not purified. A general note: In western blotting, separated proteins are transferred to a membrane and probed.

B1: β-catenin (natural protein, human (endogenous in HLMVECs), UniProt P35222 1-781, looked up)
chain: MATQADLMELDMAMEPDRKAAVSHWQQQSYLDSGIHSGATTTAPSLSGKGNPEEEDVDTSQVLYEWEQGFSQSFTQEQVADIDGQYAMTRAQRVRAAMFPETLDEGMQIPSTQFDAAHPTNVQRLAEPSQMLKHAVVNLINYQDDAELATRAIPELTKLLNDEDQVVVNKAAVMVHQLSKKEASRHAIMRSPQMVSAIVRTMQNTNDVETARCTAGTLHNLSHHREGLLAIFKSGGIPALVKMLGSPVDSVLFYAITTLHNLLLHQEGAKMAVRLAGGLQKMVALLNKTNVKFLAITTDCLQILAYGNQESKLIILASGGPQALVNIMRTYTYEKLLWTTSRVLKVLSVCSSNKPAIVEAGGMQALGLHLTDPSQRLVQNCLWTLRNLSDAATKQEGMEGLLGTLVQLLGSDDINVVTCAAGILSNLTCNNYKNKMMVCQVGGIEALVRTVLRAGDREDITEPAICALRHLTSRHQEAEMAQNAVRLHYGLPVVVKLLHPPSHWPLIKATVGLIRNLALCPANHAPLREQGAIPRLVQLLVRAHQDTQRRTSMGGTQQQFVEGVRMEEIVEGCTGALHILARDVHNRIVIRGLNTIPLFVQLLYSPIENIQRVAAGVLCELAQDKEAAEAIEAEGATAPLTELLHSRNEGVATYAAAVLFRMSEDKPQDYKKRLSVELTSSLFRTEPMAWNETADLGLDIGAQGEPLGYRQDDPSYRSFHSGGYGQDALGMDPMMEHEMGGHHPGADYPVDGLPDLGHAQDLMDGLPPGDSNQLAWFDTDL
notes: β-catenin, endogenous in human lung microvascular endothelial cells; also called beta-catenin; source: endogenous, HLMVEC lysate or fixed HLMVECs
In the case of B1, the “fold increase of the interaction after TNFα against basal” value worked out at 6 fold.
